{"source": "patent US7407939B2", "about": "“Protein kinase inhibitors comprising ATP mimetics conjugated to peptides or peptidomimetics” (CureGenics Ltd., priority 2001, dated 2008)", "tested_on": "PC-3 cells", "experiment": "ssDNA apoptosis ELISA (induction of apoptosis in prostate cancer cells)", "assay_type": "cell-based", "details": "50 μM, optical density of treated divided by untreated cells", "experimental": "Cells were assayed for Apoptosis using the ssDNA Apoptosis ELISA kit (Chemicon International Inc.). Cells were seeded in 96-well plates (5000 cells/well) and treated with different concentrations of the inhibitors. At different time point, plates were centrifuges at 200 g for 5 min, medium was removed and the cells were fixed with 80% methanol in PBS for 30 min at room temperature. Plates were dried by floating in a waterbath at 37° C. for 20 minutes. 50 μl of Formamide was added to each well and incubate at room temperature for 10 min. Plates were heated to 75° C. in a circulating waterbath for 10 min, cooled in refrigerator for 5 min, and then formamide was removed. […] Plates were monitored for colour development by ABTS using microplate reader at 405 nm.\nDNA in apoptotic cells is sensitive to denaturation by formamide in contrast to necrotic cells. […] The specific denaturation was detected with monoclonal antibody to single stranded DNA. Using ssDNA Apoptosis ELISA kit (Chemicon International, Inc.) chimeric compounds were analyzed for their potential to induce apoptosis in PC-3 cells compared to TRAIL (TNF-related apoptosis-inducing ligand), a known apoptotic agent (R&D Systems, Inc.). Results are presented in values of apoptotic index which is calculated by dividing the optical density of treated and untreated cells."}
{"molecule": "TRAIL: TNF-related apoptosis-inducing ligand, a known apoptotic agent (R&D Systems, Inc.) (protein, UniProt P50591 1-281, looked up) Tumor necrosis factor ligand …: MAMMEVQGGPSLGQTCVLIVIFTVLLQSLCVAVTYVYFTNELKQMQDKYSKSGIACFLKEDDSYWDPNDEESMNSPCWQVKWQLRQLVRKMILRTSEETISTVQEKQQNISPLVRERGPQRVAAHITGTRGRSNTLSSPNSKNEKALGRKINSWESSRSGHSFLSNLHLRNGELVIHEKGFYYIYSQTYFRFQEEIKENTKNDKQMVQYIYKYTSYPDPILLMKSARNSCWSKDAEYGLYSIYQGGIFELKENDRIFVSVTNEHLIDMDHEASFFGAFLVG", "values": [{"measurement": "Apoptotic index (48 hours)", "value": 2.3}]}
